Laboratory results published in the Human Domainome abundance scans (Beltran et al. 2025).
± gives the uncertainty stated by the source.

B1: Tumor protein 63, residues 545 to 610; numbered along this chain, Q9H3D4 (parent)
chain: TDCSIVSFLARLGCSSCLDYFTTQGLTTIYQIEHYSMDDLASLKIPEQFRHAIWKGILDHRQLHEF

Variants of: B1
Experiment: abundance fitness (aPCA) (normalised: wild type 0, dead -1); higher = more abundant; growth selection in yeast, the domain comes from the species named
Conditions: Homo sapiens

Row | Variant | abundance fitness
1 | TDCSIVSFLARLGCSSCLDYFETQGLTTIYQIEHYSMDDLASLKIPEQFRHAIWKGILDHRQLHEF [T22E] | -0.014 ± 0.032
2 | TDCSIVSFLARLGCSSCLDYFMTQGLTTIYQIEHYSMDDLASLKIPEQFRHAIWKGILDHRQLHEF [T22M] | -0.098 ± 0.039
3 | TDCSIVSFLARLGCSSCLDYFQTQGLTTIYQIEHYSMDDLASLKIPEQFRHAIWKGILDHRQLHEF [T22Q] | -0.026 ± 0.039
4 | TDCSIVSFLARLGCSSCLDYFCTQGLTTIYQIEHYSMDDLASLKIPEQFRHAIWKGILDHRQLHEF [T22C] | -0.166 ± 0.054
5 | TDCSIVSFLARLGCSSCLDYFNTQGLTTIYQIEHYSMDDLASLKIPEQFRHAIWKGILDHRQLHEF [T22N] | -0.066 ± 0.046
6 | TDCSIVSFLARLGCSSCLDYFLTQGLTTIYQIEHYSMDDLASLKIPEQFRHAIWKGILDHRQLHEF [T22L] | -0.021 ± 0.023
7 | TDCSIVSFLARLGCSSCLDYFFTQGLTTIYQIEHYSMDDLASLKIPEQFRHAIWKGILDHRQLHEF [T22F] | -0.102 ± 0.051
8 | TDCSIVSFLARLGCSSCLDYFKTQGLTTIYQIEHYSMDDLASLKIPEQFRHAIWKGILDHRQLHEF [T22K] | -0.017 ± 0.028
9 | TDCSIVSFLARLGCSSCLDYFHTQGLTTIYQIEHYSMDDLASLKIPEQFRHAIWKGILDHRQLHEF [T22H] | -0.04 ± 0.043
10 | TDCSIVSFLARLGCSSCLDYFDTQGLTTIYQIEHYSMDDLASLKIPEQFRHAIWKGILDHRQLHEF [T22D] | -0.039 ± 0.037
11 | TDCSIVSFLARLGCSSCLDYFPTQGLTTIYQIEHYSMDDLASLKIPEQFRHAIWKGILDHRQLHEF [T22P] | -0.78 ± 0.055
12 | TDCSIVSFLARLGCSSCLDYFYTQGLTTIYQIEHYSMDDLASLKIPEQFRHAIWKGILDHRQLHEF [T22Y] | -0.177 ± 0.068
13 | TDCSIVSFLARLGCSSCLDYFITQGLTTIYQIEHYSMDDLASLKIPEQFRHAIWKGILDHRQLHEF [T22I] | -0.027 ± 0.027
14 | TDCSIVSFLARLGCSSCLDYFWTQGLTTIYQIEHYSMDDLASLKIPEQFRHAIWKGILDHRQLHEF [T22W] | -0.096 ± 0.027
15 | TDCSIVSFLARLGCSSCLDYFVTQGLTTIYQIEHYSMDDLASLKIPEQFRHAIWKGILDHRQLHEF [T22V] | -0.036 ± 0.023
16 | TDCSIVSFLARLGCSSCLDYFATQGLTTIYQIEHYSMDDLASLKIPEQFRHAIWKGILDHRQLHEF [T22A] | -0.023 ± 0.034
17 | TDCSIVSFLARLGCSSCLDYFGTQGLTTIYQIEHYSMDDLASLKIPEQFRHAIWKGILDHRQLHEF [T22G] | -0.1 ± 0.023
18 | TDCSIVSFLARLGCSSCLKYFTTQGLTTIYQIEHYSMDDLASLKIPEQFRHAIWKGILDHRQLHEF [D19K] | -0.024 ± 0.031
19 | TDCSIVSFLARLGCSSCLGYFTTQGLTTIYQIEHYSMDDLASLKIPEQFRHAIWKGILDHRQLHEF [D19G] | -0.032 ± 0.031
20 | TDCSIVSFLARLGCSSCLNYFTTQGLTTIYQIEHYSMDDLASLKIPEQFRHAIWKGILDHRQLHEF [D19N] | 0.004 ± 0.051
21 | TDCSIVSFLARLGCSSCLPYFTTQGLTTIYQIEHYSMDDLASLKIPEQFRHAIWKGILDHRQLHEF [D19P] | 0.004 ± 0.026

Row | Variant | abundance fitness
22 | TDCSIVSFLARLGCSSCLAYFTTQGLTTIYQIEHYSMDDLASLKIPEQFRHAIWKGILDHRQLHEF [D19A] | -0.05 ± 0.027
23 | TDCSIVSFLARLGCSSCLMYFTTQGLTTIYQIEHYSMDDLASLKIPEQFRHAIWKGILDHRQLHEF [D19M] | -0.086 ± 0.034
24 | TDCSIVSFLARLGCSSCLLYFTTQGLTTIYQIEHYSMDDLASLKIPEQFRHAIWKGILDHRQLHEF [D19L] | -0.089 ± 0.019
25 | TDCSIVSFLARLGCSSCLCYFTTQGLTTIYQIEHYSMDDLASLKIPEQFRHAIWKGILDHRQLHEF [D19C] | -0.079 ± 0.044
26 | TDCSIVSFLARLGCSSCLRYFTTQGLTTIYQIEHYSMDDLASLKIPEQFRHAIWKGILDHRQLHEF [D19R] | -0.019 ± 0.023
27 | TDCSIVSFLARLGCSSCLEYFTTQGLTTIYQIEHYSMDDLASLKIPEQFRHAIWKGILDHRQLHEF [D19E] | -0.015 ± 0.036
28 | TDCSIVSFLARLGCSSCLYYFTTQGLTTIYQIEHYSMDDLASLKIPEQFRHAIWKGILDHRQLHEF [D19Y] | -0.103 ± 0.024
29 | TDCSIVSFLARLGCSSCLFYFTTQGLTTIYQIEHYSMDDLASLKIPEQFRHAIWKGILDHRQLHEF [D19F] | -0.09 ± 0.031
30 | TDCSIVSFLARLGCSSCLQYFTTQGLTTIYQIEHYSMDDLASLKIPEQFRHAIWKGILDHRQLHEF [D19Q] | -0.087 ± 0.056
31 | TDCSIVSFLARLGCSSCLVYFTTQGLTTIYQIEHYSMDDLASLKIPEQFRHAIWKGILDHRQLHEF [D19V] | -0.081 ± 0.029
32 | TDCSIVSFLARLGCSSCLWYFTTQGLTTIYQIEHYSMDDLASLKIPEQFRHAIWKGILDHRQLHEF [D19W] | -0.058 ± 0.03
33 | TDCSIVSFLARLGCSSCLIYFTTQGLTTIYQIEHYSMDDLASLKIPEQFRHAIWKGILDHRQLHEF [D19I] | -0.067 ± 0.036
34 | TDCSIVSFLARLGCSSCLTYFTTQGLTTIYQIEHYSMDDLASLKIPEQFRHAIWKGILDHRQLHEF [D19T] | -0.002 ± 0.035
35 | TDCSIVSFLARLGCSSCLDYHTTQGLTTIYQIEHYSMDDLASLKIPEQFRHAIWKGILDHRQLHEF [F21H] | -0.975 ± 0.18
36 | TDCSIVSFLARLGCSSCLDYYTTQGLTTIYQIEHYSMDDLASLKIPEQFRHAIWKGILDHRQLHEF [F21Y] | -0.85 ± 0.091
37 | TDCSIVSFLARLGCSSCLDYKTTQGLTTIYQIEHYSMDDLASLKIPEQFRHAIWKGILDHRQLHEF [F21K] | -1.15 ± 0.16
38 | TDCSIVSFLARLGCSSCLDYETTQGLTTIYQIEHYSMDDLASLKIPEQFRHAIWKGILDHRQLHEF [F21E] | -0.983 ± 0.12
39 | TDCSIVSFLARLGCSSCLDYSTTQGLTTIYQIEHYSMDDLASLKIPEQFRHAIWKGILDHRQLHEF [F21S] | -0.773 ± 0.05
40 | TDCSIVSFLARLGCSSCLDYITTQGLTTIYQIEHYSMDDLASLKIPEQFRHAIWKGILDHRQLHEF [F21I] | -0.737 ± 0.095
41 | TDCSIVSFLARLGCSSCLDYVTTQGLTTIYQIEHYSMDDLASLKIPEQFRHAIWKGILDHRQLHEF [F21V] | -1 ± 0.061
